Data taken from patent US20240174985A1, “METHOD FOR PRODUCING OVARIAN SOMATIC CELL-LIKE CELLS, AND METHOD FOR INDUCING DIFFERENTIATION OF PRIMATE PLURIPOTENT STEM CELLS INTO OVARIAN SOMATIC CELL-LIKE CELLS” (Kyoto University, priority 2021, published 2024).

How the values were obtained:
Assay type in all cases: cell-based
[1] = system: cynomolgus monkey ES cells
human iPS cells [2] = assay: Quantitative PCR of marker genes in cells induced from human iPS cells; settings: Activin A 10 ng/mL added between day 2 and day 4, fibronectin plane culture
Source text: The relative expression level of each marker gene was confirmed using a PCR apparatus (BIO-RAD CFX384 Real-Time System) with the following primers and conditions. In the tables, the PPIA gene and the RPLP0 gene were used as housekeeping genes. The difference in qPCR is a difference from the average value taken as “(PPIA+RPLP0)/2”. In addition, the ERCC gene was used as an absolute control between samples.

human iPS cells [3] = assay: Induction of differentiation from human iPS cells into ovarian somatic cell-like cells (FACS of OSR1-tdTomato/NR5A1-EGFP reporters, observation of embryoid bodies); settings: Activin A 10 ng/ml added between day 2 and day 4
Source text: In order to conveniently observe the expression of genes typical at each developmental stage, a human iPS cell line 1390G3 was genetically modified, and a DNA sequence that emits red fluorescence (tdTomato) with the expression of the OSR1 gene, green fluorescence (EGFP) with the expression of the NR5A1 gene, and red fluorescence (tdTomato) with the expression of the FOXL2 gene was manufactured (see FIG. 1, and after introduction into the chromosome, a portion of “PGKp-Neo (or Puro)-pA” portion was deleted with Cre). An iPS cell line into which two DNA sequences of OSR1 and NR5A1 had been introduced (which may be hereinafter abbreviated as “OTNG”), and an iPS cell line into which two DNA sequences of NR5A1 and FOXL2 had been introduced (which may be hereinafter abbreviated as “NGFT”) were manufactured. In the present test, the OTNG strain was used in most of the experiments. Furthermore, NR5A1 and SF1 are the same gene.
The cells at each stage were analyzed using a flow cytometer (BD FACSAria III).
The ES cells of monkeys and human iPS cells are considered to be similar to EpiLC in a slightly advanced state in terms of differentiation, as compared with mouse ES cells. Therefore, in the examination using monkey or human pluripotent stem cells in the present test, step 0 was omitted and the process was started from step 1. […]

B1: Activin A: TGF-β family member produced by multiple cell species during development (protein, UniProt P08476 311-426, looked up)
Inhibin beta A chain: GLECDGKVNICCKKQFFVSFKDIGWNDWIIAPSGYHANYCEGECPSHIAGTSGSSLSFHSTVINHYRMRGHSPFANLKSCCVPTKLRPMSMLYYDDGQNIIKKDIQNMIVEECGCS
B1 was tested, and the “expression of OSR1” value ([1]; added in step 1: bFGF 50 ng/mL entire period, Activin A 10 ng/ml one day from day 1, FACS days 2, 4, 6) was “acted toward enhancing the expression of OSR1”, the improvement of induction ([1]; addition of Activin A after day 1 of step 1, FACS days 16 and 28) was “no improvement was observed” and the “improvement of the induction of NR5A1-positive cells” value ([1]; bFGF 50 ng/ml and Activin A 10 ng/ml (only from day 1) in step 1, days 14 and 21) was “not recognized”. The “expression of GATA3 and HOXB9” value (human iPS cells [2]; day 15) was “decreased”, the “expression of FOXL2” value (human iPS cells [2]; day 27) was “almost equivalent to that in the ovarian somatic cells collected from the living body” and the “proportion of the OSR1− (negative) and SF1+ (positive) cells” value (human iPS cells [3]; plane culture, FACS day 15) was “further increased”. For the same molecule, the “size of the embryoid bodies” value (human iPS cells [3]; step 1 plane culture on fibronectin-coated plate) was “increased over time”.
